Target: VAPB-MSP domain, MSP(1–125) (human) (UniProt O95292)
Experiment: NMR titration; 1H-15N HSQC of 15N-labelled VAPB protein (50 uM) with unlabelled NS5B or Eph protein added at different molar ratios (increment 0.5 for C-linker and Eph); 10 mM phosphate buffer pH 6.8, 25 C, 800 MHz; CSD tracings fitted with a one binding site model for residue-specific Kd

Sequence of UniProt O95292 (O95292 1-125): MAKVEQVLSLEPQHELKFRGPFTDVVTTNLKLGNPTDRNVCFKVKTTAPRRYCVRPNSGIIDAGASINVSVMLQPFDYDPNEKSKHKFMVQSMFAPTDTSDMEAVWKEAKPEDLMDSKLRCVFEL

Substance: NS5B C-linker peptide (531–570)
- Kd: 8.8 µM
- residue-specific Kd (MSP residue 53C): 1.4 µM
- residue-specific Kd (MSP residue 79D): 13.6 µM
- residue-specific Kd (MSP residue 82E): 12.8 µM
- residue-specific Kd (MSP residue 90V): 9 µM
- residue-specific Kd (MSP residue 116D): 5.7 µM
- residue-specific Kd (MSP residue 118K): 2.9 µM
- residue-specific Kd (MSP residue 119L): 16 µM
